Experimental data published in patent US6534300.

Columns and labels:
[1] = tested on: RNAse B
[2] = tested on: cathepsin D
[3] = target: porcine uteroferrin (UniProt P09889)
Chain of UniProt P09889 (P09889 22-340): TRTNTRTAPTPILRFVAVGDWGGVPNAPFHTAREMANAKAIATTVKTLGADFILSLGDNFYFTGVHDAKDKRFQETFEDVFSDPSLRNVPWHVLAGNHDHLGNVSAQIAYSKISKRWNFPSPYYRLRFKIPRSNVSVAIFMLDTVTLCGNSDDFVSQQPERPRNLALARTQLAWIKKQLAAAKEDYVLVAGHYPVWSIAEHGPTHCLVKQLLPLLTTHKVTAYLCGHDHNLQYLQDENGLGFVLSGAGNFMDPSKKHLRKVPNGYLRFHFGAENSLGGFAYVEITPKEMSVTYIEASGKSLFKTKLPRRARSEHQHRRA

For “bovine UDP-N-acetylglucosamine: lysosomal enzyme N-Acetylglucosamine-1-phosphotransferase”, the “Km as acceptor for transfer of GlcNAc-1-P” value (from here on “Km … of GlcNAc-1-P”) [1] was “the Km was not reached at the solubility limit of the protein (at 600 µM)”, the “Km … of GlcNAc-1-P” value [2] was “Kms below 20 µM” and the “Km … of GlcNAc-1-P” value [3] was “Kms below 20 µM”.
